The test deals with endogenous Maf1 (human (endogenous in HeLa)) (UniProt Q9H063). As to the kind of experiment: co-IP; HeLa (cell line 9-8) whole cell extract, immunoprecipitation with anti-Maf1 or anti-GAPDH antibodies; immunoblot with anti-RPC1, anti-Brf1, anti-Maf1.

We go through 1 substance from publication PMC1762419.

Chain of endogenous Maf1 (human (endogenous in HeLa)) (Q9H063 whole entry): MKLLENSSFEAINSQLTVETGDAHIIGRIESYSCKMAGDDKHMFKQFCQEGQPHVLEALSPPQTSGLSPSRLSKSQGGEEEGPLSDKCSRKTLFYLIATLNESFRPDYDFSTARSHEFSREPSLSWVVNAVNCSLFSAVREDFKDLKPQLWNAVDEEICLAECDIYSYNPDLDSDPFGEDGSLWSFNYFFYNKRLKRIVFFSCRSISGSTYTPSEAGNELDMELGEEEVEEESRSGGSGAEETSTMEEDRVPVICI

“RPC1, the largest subunit of pol III (endogenous, HeLa) (from UniProt O14802 1-1390) (natural protein)”: the percent of RPC1 co-immunoprecipitated was determined as 6%.
